Source: PMC3365014 (PLoS ONE, 2012)

Target: T1, p53 C-terminal domain (p53CTD, residues 293–393) (UniProt P04637 293-393)
T1 construct: p53 C-terminal domain, residues 293–393; 15N-labeled for NMR; also called p53(293–393); full length p53CTD; source: E. coli (C41 for the 15N-labeled protein), purified as described [23]
Assay: peptide or protein array; Celluspots peptide array, peptides immobilised; 20 µM p53CTD in 1% milk in TBS-T (50 mM Tris pH 7.5, 110 mM NaCl, 0.05% Tween 20), overnight at 4°C; detected with FL-393 anti-p53 antibody
Conditions: both partners purified

T1 sequence (P04637 293-393): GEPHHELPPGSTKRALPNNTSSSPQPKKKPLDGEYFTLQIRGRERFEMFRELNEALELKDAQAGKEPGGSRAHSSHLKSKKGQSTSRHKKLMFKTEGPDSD

B1: PKCα(271–285), peptide on the array (peptide)
peptide: ASGWYKLLNQEEGEY
notes: Protein Kinase C α isoform, residues 271–285; Immobilised on the array; source: bought: Intavis Celluspots peptide array
  binding result: binds
